Laboratory results taken from US20170015742A1 (published 2017).
Each block holds one binder with its values, some of them ahead of it.

Assays:
[1] = biological target: T1, recombinant human PDGF-BB (human, UniProt P01127 82-190); assay: cell-based or functional assay
[2] = biological target: T1, recombinant human PDGF-BB; assay: competition ELISA: antibody pre-incubated with hPDGF-BB-biotin, then added to coated hPDGF-Rβ-Fc (competitor)
Procedure: (§1) Plates were then washed four times with wash buffer (TBS, 0.05% Tween-20) and blocked with Superblock blocking buffer (Thermo Scientific, cat#37535). During the blocking step, supernatants, antibodies, benchmark compounds or DVD-Ig were diluted in assay diluent (10% Superblock containing 0.05% surfactamps) and an eight point titration of each sample molecule was performed. […] Following incubation, plates were washed four times with wash buffer. Detection reagent Streptavidin-polyHRP-40 (Fitzgerald, cat#65r-s104phrp) was diluted in assay diluent and added to plates (50 μL) for 45 minutes at 25° C. with shaking. Plates were washed four times with wash buffer and developed with the addition of Enhanced K-blue TMB substrate (Neogen, cat#308177). The reaction was stopped with 2N sulfuric acid (VWR, cat# BDH3500-1) and the absorbance was read at 450 nm-570 nm. […] Data was analyzed using Softmax Pro 4.8 software and IC₅₀ values calculated using a sigmoidal dose response (variable slope) fit in GraphPad Prism 5.

[3] = biological target: T2, VEGF-A (recombinant; human VEGF-A 165) (human, UniProt P15692 207-395); assay: Biacore SPR; binding protein captured on goat anti-human Fc, antigen injected (Example 1.1)
T2 construct: also called hVEGF165

[4] = biological target: T3, PDGF-BB (recombinant; human PDGF-BB) (human, UniProt P01127 82-190, limits assumed); assay: as above
T3 construct: PDGF-BB is a homodimer of two B chains; also called hPDGF-BB

[5] = biological target: T4, recombinant human PDGF-BB (human, UniProt P01127 82-190, biotin-labelled in the binding and competition ELISAs (sites not given)); assay: receptor competition ELISA: antibody pre-incubated with biotin-hPDGF-BB, binding to coated hPDGF-Rβ-Fc
T4 construct: Bought protein (CST cat#8912BF) in the ELISAs and cell assays; purified recombinant PDGF-BB in Biacore; also called huPDGF-BB; hPDGF-BB
Procedure: as §1

[6] = biological target: T4, recombinant human PDGF-BB; assay: direct binding ELISA, biotin-hPDGF-BB on neutravidin plates, antibody titrated
Procedure: Plates were then washed four times with wash buffer (TBS, 0.05% Tween-20). The sample molecule titration was added to the coated plate at 50 μL in duplicate and incubated for one hour at 25° C. with shaking. Following incubation, plates were washed four times with wash buffer. The appropriate anti-species-IgG HRP conjugate was in assay diluent (10% Superblock containing 0.05% surfactamps) and added to plates (50 μL) for one hour at 25° C. with shaking. Plates were washed four times with wash buffer and developed with the addition of Enhanced K-blue TMB substrate (Neogen, cat#308177). The reaction was stopped with 2N sulfuric acid (VWR, cat# BDH3500-1) and the absorbance was read at 450 nm-570 nm. […] Data was analyzed using Softmax Pro 4.8 software and IC₅₀ values calculated using a sigmoidal dose response (variable slope) fit in GraphPad Prism 5.

[7] = biological target: T4, recombinant human PDGF-BB; assay: Biacore SPR, antibody captured by anti-human Fc, PDGF-BB injected
Procedure: For example, approximately 9000 RU of goat anti-human Fc specific polyclonal antibody (Thermo Fisher Scientific Inc., Rockford, Ill.) diluted in 10 mM sodium acetate (pH 4.5) is directly immobilized across a CM5 research grade biosensor chip using a standard amine coupling kit according to manufacturer's instructions and procedures at 25 μg/ml. Unreacted moieties on the biosensor surface were blocked with ethanolamine. For kinetic analysis, rate equations derived from the 1:1 Langmuir binding model were fitted simultaneously to multiple antigen injections (using global fit analysis) with the use of Scrubber 2 (BioLogic Software), Biacore Biaevaluation 4.0.1 software or Biacore T100 Evaluation software. Purified antibodies or DVD-Ig molecules were diluted in running buffer for capture across goat anti-human Fc reaction surfaces. Antibodies or DVD-Ig molecules to be captured as a ligand (1 μg/ml) were injected over reaction matrices at a flow rate of 10 μl/minute. During the assay, all measurements were referenced against the capture surface alone (i.e., with no captured antibody or DVD-Ig molecule). […] The equilibrium dissociation constant KD (M) of the reaction between antibodies and the target antigen was then calculated from the kinetic rate constants by the following formula: KD=Koff/Kₒₙ. Binding was recorded as a function of time and kinetic rate constants were calculated.

[8] = biological target: T4, recombinant human PDGF-BB; assay: cell-based or functional assay
recombinant rat PDGF-BB = recombinant rat PDGF-BB (rat, UniProt Q05028 74-182); assay: cell-based or functional assay
[9] = biological target: T5, recombinant human PDGF-Rβ-Fc (human, UniProt P09619 33-530); assay: competition ELISA: antibody added to coated hPDGF-Rβ-Fc, then hPDGF-BB-biotin (competitor)
T5 construct: also called hPDGFRβ-Fc; hPDGF-Rβ; not shown: Fc part of the bought fusion protein
Procedure: Plates were then washed four times with wash buffer (TBS, 0.05% Tween-20) and blocked with Superblock blocking buffer (Thermo Scientific, cat#37535). During the blocking step, supernatants, antibodies and benchmark compounds were diluted in assay diluent (10% Superblock containing 0.05% surfactamps) and an eight point titration of each sample molecule was performed. The samples were added to wells and incubated for 30 minutes at 25° C. with shaking. […] This was added to wells (10 ng/mL/3.97E-10 M final concentration) and incubation was continued for 35 minutes at 25° C. with shaking. Following incubation, plates were washed four times with wash buffer. Detection reagent Streptavidin-polyHRP-40 (Fitzgerald, cat#65r-s104phrp) was diluted in assay diluent and added to plates (50 μL) for 45 minutes at 25° C. with shaking. Plates were washed four times with wash buffer and developed with the addition of Enhanced K-blue TMB substrate (Neogen, cat#308177). The reaction was stopped with 2N sulfuric acid (VWR, cat# BDH3500-1) and the absorbance was read at 450 nm-570 nm. […] Data was analyzed using Softmax Pro 4.8 software and IC₅₀ values calculated using a sigmoidal dose response (variable slope) fit in GraphPad Prism 5.

T1 sequence (P01127 82-190 limits assumed): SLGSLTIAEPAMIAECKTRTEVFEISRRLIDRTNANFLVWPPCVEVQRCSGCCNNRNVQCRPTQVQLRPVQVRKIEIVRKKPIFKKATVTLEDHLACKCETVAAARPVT
T4 sequence (P01127 82-190 limits assumed): as above
T5 sequence (P09619 33-530 limits assumed): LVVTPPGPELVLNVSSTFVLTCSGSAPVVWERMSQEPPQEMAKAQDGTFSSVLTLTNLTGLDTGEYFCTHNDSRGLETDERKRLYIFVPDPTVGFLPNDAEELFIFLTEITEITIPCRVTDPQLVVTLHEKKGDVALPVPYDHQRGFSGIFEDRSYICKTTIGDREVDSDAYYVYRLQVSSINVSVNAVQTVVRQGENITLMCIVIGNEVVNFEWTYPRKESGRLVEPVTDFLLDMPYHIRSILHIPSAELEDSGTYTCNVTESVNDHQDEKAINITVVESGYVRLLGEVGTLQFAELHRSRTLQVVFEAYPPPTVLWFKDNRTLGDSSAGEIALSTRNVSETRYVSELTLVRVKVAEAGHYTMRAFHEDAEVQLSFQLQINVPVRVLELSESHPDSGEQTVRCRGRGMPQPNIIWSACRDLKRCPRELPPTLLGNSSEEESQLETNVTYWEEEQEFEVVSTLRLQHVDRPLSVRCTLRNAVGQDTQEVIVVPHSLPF
T3 sequence (P01127 82-190 limits assumed): as the sequence (P01127 82-190 limits assumed) above
T2 sequence (P15692 other isoform, or with tags, fused parts or gaps limits assumed): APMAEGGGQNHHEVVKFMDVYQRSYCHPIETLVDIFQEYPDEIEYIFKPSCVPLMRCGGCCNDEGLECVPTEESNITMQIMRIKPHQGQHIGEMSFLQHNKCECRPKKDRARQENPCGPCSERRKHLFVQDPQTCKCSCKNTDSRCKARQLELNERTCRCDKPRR
Sequence of recombinant rat PDGF-BB (Q05028 74-182 limits assumed): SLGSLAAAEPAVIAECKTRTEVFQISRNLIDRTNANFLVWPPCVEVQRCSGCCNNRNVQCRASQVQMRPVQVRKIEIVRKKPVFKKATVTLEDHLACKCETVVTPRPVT

B1: hBDI-9E8.11 (antibody, V domains shown)
VH: EVQLVESGGGLVQPGGSLRLSCAFSGFSLSTYGMGVGWIRQAPGKGLEWLANIWWDDDKYYNPSLKNRLTISKDTSKNQAYLQINSLRAEDTAVYYCARIESIGTTYSFDYWGQGTLVTVSS
VL: DFVLTQSPDSLAVSLGERATINCERSSGDIGDSYVSWYQQKPGQPPKNVIYADDQRPSGVPDRFSGSGSGNSASLTISSLQAEDVAVYFCQSYDINIDIVFGGGTKVEIK
notes: Humanized IgG from pHybE expression vectors, made in HEK293 6E and protein A purified
hPDGF-BB IC50 (nM), hPDGF-BB-induced NIH-3T3 cell proliferation [1]: 0.309 nM | IC50 [2]: 1.73 nM

B4: chBDI-5H1 (antibody, human IgG1, V domains shown)
VH: QVTLKESGPGILQPSQTLSLTCTFSGFSLSTFGMGVGWIRQPSGKGLEWLANIWWDDDKYYNPSLKNRLTISKDTSNSQAFLEITNVDTADTATYYCARISTGISSYYVMDAWGQGASVTVSS
VL: QFTLTQPKSVSGSLRSTITIPCERSSGDIGDTYVSWYQQHLGRPPINVIYGNDQRPSEVSDRFSGSIDSSSNSASLTITNLQMDDEADYFCQSYDSDIDIVFGGGTKLTVL
notes: also called chimeric BDI-5H1-F6
IC50 [5]: 1.04 nM | EC50 [6]: 0.12 nM | Kd [7]: ≤ 0.015 nM | koff [7]: 0.00015 s⁻¹ | kon [7]: ≥ 1e+07 M⁻¹ s⁻¹ | huPDGF-BB Neutralization Potency (nM) in NIH-3T3 Cells [8]: 0.275 nM | ratPDGF-BB Neutralization Potency (nM) in NIH-3T3 Cells (recombinant rat PDGF-BB): 0.17 nM

B5: hBDI-9E8.4 (antibody, V domains shown)
VH: EVTLRESGPALVKPTQTLTLTCTFSGFSLSTYGMGVGWIRQPPGKALEWLANIWWDDDKYYNPSLKNRLTISKDTSKNQVVLTMTNMDPVDTATYYCARIESIGTTYSFDYWGQGTMVTVSS
VL: EFVLTQSPGTLSLSPGERATLSCERSSGDIGDSYVSWYQQKPGQAPRLVIYADDQRPSGIPDRFSGSGSGTDFTLTISRLEPEDFAVYYCQSYDINIDIVFGGGTKVEIK
notes: Humanized IgG from pHybE expression vectors, made in HEK293 6E and protein A purified; also called h9E8.4
hPDGF-BB IC50 (nM), hPDGF-BB-induced NIH-3T3 cell proliferation [1]: 0.061 nM | IC50 [2]: 4.3 nM

B6: hBDE-3C9.1 (antibody, V domains shown)
VH: EVQLVESGGGLVQPGGSLRLSCAASGFTFSNYGMAWVRQAPGKGLEWVASITNSGGNTYYRDSVKGRFTISRDNAKNTQYLQMNSLRAEDTAVYFCARHTPGANYFDYWGQGTMVTVSS
VL: DIQMTQSPSSLSASVGDRVTITCQASQSIKNYIAWYQLKPGKAPRLLMRYTSTLESGTPSRFSGSGSGRDYTFTISSLQPEDIATYYCVQYANLYTFGGGTKVEIK
notes: Humanized anti-human PDGFR-B IgG from pHybE expression vectors
IC50 [9]: 0.217 nM

B7: hBDE-3C9.2 (antibody, V domains shown)
VH: EVQLVESGGGLVQPGGSLRLSCAASGFTFSNYGMAWVRQAPGKGLEWVASITNSGGNTYYRDSVKGRFTISRDNAKNSLYLQMNSLRAEDTAVYYCARHTPGANYFDYWGQGTMVTVSS
VL: DIQMTQSPSSLSASVGDRVTITCQASQSIKNYIAWYQQKPGKAPRLLIRYTSTLESGVPSRFSGSGSGRDYTFTISSLQPEDIATYYCVQYANLYTFGGGTKVEIK
notes: as for B6
IC50 [9]: 0.26 nM

Continued, values first:

Kd [3]: 0.013 nM | kon [3]: 4.5e+06 M⁻¹ s⁻¹ | Kd [4]: 0.0042 nM | kon [4]: 3.2e+07 M⁻¹ s⁻¹
B2: CODV022 (PR-1577056), anti-human VEGF-A/anti-human PDGF-BB cross-over DVD-Ig molecule (bispecific antibody, human IgG1, kappa, L234A L235A)
heavy: EVQLVQSGSELKKPGASVKVSCKASGYTFTNYGMYWVRQAPGQGLEWMGWINTETGKPTYADDFKGRFVFSLDTSVSTAYLQISSLKAEDTAVYYCARTNYYYRSYIFYFDYWGQGTMVTVSSGGGGSGGGEFVLTQSPGTLSLSPGERATLSCERSSGDIGESYVSWYQQKPGQAPRLVIYADDQRPSGIPDRFSGSGSGTDFTLTISRLEPEDFAVYYCQSYDINIDIVFGGGTKVEIKGGGSGASTKGPSVFPLAPSSKSTSGGTAALGCLVKDYFPEPVTVSWNSGALTSGVHTFPAVLQSSGLYSLSSVVTVPSSSLGTQTYICNVNHKPSNTKVDKKVEPKSCDKTHTCPPCPAPEAAGGPSVFLFPPKPKDTLMISRTPEVTCVVVDVSHEDPEVKFNWYVDGVEVHNAKTKPREEQYNSTYRVVSVLTVLHQDWLNGKEYKCKVSNKALPAPIEKTISKAKGQPREPQVYTLPPSREEMTKNQVSLTCLVKGFYPSDIAVEWESNGQPENNYKTTPPVLDSDGSFFLYSKLTVDKSRWQQGNVFSCSVMHEALHNAYTQKSLSLSPGK
light: EVTLRESGPALVKPTQTLTLTCTFSGFSLSTYGMGVGWIRQPPGKALEWLANIWWDDDKYYNPSLKNRLTISKDTSKNQVVLTMTNMDPVDTATYYCARIESIGTTYSFDYWGQGTMVTVSSGGGGSDTVLTQSPATLSLSPGERATLSCRASESVSTHMHWYQQKPGQAPRLLIYGASNLESGVPARFSGSGSGTDFTLTISSLEPEDFAVYFCQQSWNDPFTFGQGTKLEIKGGSRTVAAPSVFIFPPSDEQLKSGTASVVCLLNNFYPREAKVQWKVDNALQSGNSQESVTEQDSKDSTYSLSSTLTLSKADYEKHKVYACEVTHQGLSSPVTKSFNRGEC
notes: Cross-over DVD-Ig: the variable domains of the 4G8.3 (VEGF) and 9E8.4E (PDGF) sites are spread over both chains; also called CO-DVD-Ig

IC50 [5]: 0.791 nM | EC50 [6]: 0.38 nM | Kd [7]: ≤ 0.012 nM | koff [7]: 0.00012 s⁻¹ | kon [7]: ≥ 1e+07 M⁻¹ s⁻¹ | huPDGF-BB Neutralization Potency (nM) in NIH-3T3 Cells [8]: 0.058 nM | ratPDGF-BB Neutralization Potency (nM) in NIH-3T3 Cells (recombinant rat PDGF-BB): 0.075 nM
B3: chBDI-9E8 (antibody, V domains shown)
VH: QVTLKESGPGILQPSQTLSLTCTFSGFSLSTYGMGVGWIRQPSGKGLEWLANIWWDDDKYYNPSLKNRLTISKDTSNNQAFLKITNVDTADTATYYCARIESIGTTYSFDYWGQGVMVTVSS
VL: QFTLTQPKSVSGSLRSTITIPCERSSGDIGDSYVSWYQQHLGRPPINVIYADDQRPSEVSDRFSGSIDSSSNSASLTITNLQMDDEADYFCQSYDINIDIVFGGGTKLTVL
notes: also called chimeric BDI-9E8-E7
